Four molecules from paper doi:10.1101/2023.11.22.568357 (bioRxiv, 2023) can be followed below.

Assay [1] concerns the target His-TEV LRRC4B (limits not told for Fig. 1G) (human). Briefly: ELISA.
Assay [2] addresses His-TEV LRRC4B(36-576) (human) (UniProt Q9NT99). Briefly: ELISA.
The target of assay [3] is LRRC4B(453-576)-hFc (human) (UniProt Q9NT99). Briefly: ELISA.
The target of assay [4] is LRRC4B(484-576)-hFc (human) (UniProt Q9NT99). Briefly: ELISA.
The target in assay [5] is 6xHis-LRRC4B(453–576) (human) (UniProt Q9NT99). Briefly: SPR.
The target in assay [6] is T1, PTPRF ectodomain (30-1263)-hFc (human, UniProt P10586-1 30-1263).
T1 sequence (looked up): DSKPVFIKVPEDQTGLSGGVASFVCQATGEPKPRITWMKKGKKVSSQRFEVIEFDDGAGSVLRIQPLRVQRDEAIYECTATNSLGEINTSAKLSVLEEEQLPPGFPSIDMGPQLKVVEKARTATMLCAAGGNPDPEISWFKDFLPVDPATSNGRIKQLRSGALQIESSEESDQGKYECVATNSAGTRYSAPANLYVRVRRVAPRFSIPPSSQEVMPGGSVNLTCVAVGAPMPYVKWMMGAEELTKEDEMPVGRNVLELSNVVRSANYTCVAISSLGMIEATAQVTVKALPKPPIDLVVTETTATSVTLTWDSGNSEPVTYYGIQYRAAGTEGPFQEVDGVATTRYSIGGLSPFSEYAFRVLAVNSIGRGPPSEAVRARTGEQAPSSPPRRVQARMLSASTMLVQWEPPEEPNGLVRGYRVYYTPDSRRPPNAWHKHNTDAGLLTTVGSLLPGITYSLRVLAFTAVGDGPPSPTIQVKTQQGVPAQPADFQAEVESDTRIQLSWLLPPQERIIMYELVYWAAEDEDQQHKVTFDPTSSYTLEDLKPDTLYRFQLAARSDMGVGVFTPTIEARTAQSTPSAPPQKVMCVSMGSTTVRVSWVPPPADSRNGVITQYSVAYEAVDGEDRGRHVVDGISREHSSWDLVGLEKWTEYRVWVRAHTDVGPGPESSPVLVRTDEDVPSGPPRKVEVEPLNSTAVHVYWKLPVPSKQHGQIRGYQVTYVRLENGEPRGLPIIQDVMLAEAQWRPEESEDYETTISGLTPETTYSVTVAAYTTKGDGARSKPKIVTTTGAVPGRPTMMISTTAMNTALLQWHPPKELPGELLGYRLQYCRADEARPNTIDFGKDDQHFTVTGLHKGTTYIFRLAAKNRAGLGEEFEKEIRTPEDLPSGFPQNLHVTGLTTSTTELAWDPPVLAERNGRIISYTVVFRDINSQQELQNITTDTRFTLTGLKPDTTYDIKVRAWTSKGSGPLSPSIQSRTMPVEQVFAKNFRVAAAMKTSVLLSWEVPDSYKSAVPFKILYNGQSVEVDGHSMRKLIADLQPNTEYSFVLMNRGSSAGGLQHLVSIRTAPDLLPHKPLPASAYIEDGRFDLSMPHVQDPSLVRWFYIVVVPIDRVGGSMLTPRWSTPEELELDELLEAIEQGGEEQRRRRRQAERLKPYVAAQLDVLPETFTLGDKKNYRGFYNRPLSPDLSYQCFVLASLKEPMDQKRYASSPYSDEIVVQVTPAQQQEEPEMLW
In words: ELISA.

Assay [7] addresses FAM19A5 (wild type, recombinant) (human). Briefly: ELISA.

“FAM19A5 (wild type, recombinant) (ligand)” registered an EC50 in assay [1] of 0.41 nM. Further, the IC50 in assay [2] stood at 281 nM. In addition, in assay [3], the concentration for a half-maximal effect (EC50) came to 0.0685 nM. For the same molecule, the concentration for a half-maximal effect (EC50) in assay [4] was 0.112 nM. In assay [5], this molecule registered a Kd of 0.0321 nM, an off-rate (koff) of 0.000157 s⁻¹ and a kon of 4.89e+06 M⁻¹ s⁻¹.
The molecule MT FAM19A5(R58A, R59A) (ligand) gave a 50% effective concentration (EC50) in assay [1] of 0.595 nM.

B1: His-TEV LRRC4B(36-576) (domain or fragment, human, UniProt Q9NT99 36-576, looked up)
chain: AGGGGVAVTSAAGGGSPPATSCPVACSCSNQASRVICTRRDLAEVPASIPVNTRYLNLQENGIQVIRTDTFKHLRHLEILQLSKNLVRKIEVGAFNGLPSLNTLELFDNRLTTVPTQAFEYLSKLRELWLRNNPIESIPSYAFNRVPSLRRLDLGELKRLEYISEAAFEGLVNLRYLNLGMCNLKDIPNLTALVRLEELELSGNRLDLIRPGSFQGLTSLRKLWLMHAQVATIERNAFDDLKSLEELNLSHNNLMSLPHDLFTPLHRLERVHLNHNPWHCNCDVLWLSWWLKETVPSNTTCCARCHAPAGLKGRYIGELDQSHFTCYAPVIVEPPTDLNVTEGMAAELKCRTGTSMTSVNWLTPNGTLMTHGSYRVRISVLHDGTLNFTNVTVQDTGQYTCMVTNSAGNTTASATLNVSAVDPVAAGGTGSGGGGPGGSGGVGGGSGGYTYFTTVTVETLETQPGEEALQPRGTEKEPPGPTTDGVWGGGRPGDAAGPASSSTTAPAPRSSRPTEKAFTVPITDVTENALKDLDDVMKTTK
Take B1: the binding result in assay [6] is recorded as “binds”.

B2: LRRC4B(453-576)-hFc (Fc fusion)
chain: VSAVDPVAAGGTGSGGGGPGGSGGVGGGSGGYTYFTTVTVETLETQPGEEALQPRGTEKEPPGPTTDGVWGGGRPGDAAGPASSSTTAPAPRSSRPTEKAFTVPITDVTENALKDLDDVMKTTK
As to B2, the half-maximal inhibitory concentration (IC50) in assay [7] amounted to 8.1 nM.
